9 molecules from PMC11861898 (Communications Biology, 2025) can be followed below.

The target in one experiment is T1, human CIB2 1-187 E11R (human, UniProt O75838 1-187, E11R).
T1 sequence: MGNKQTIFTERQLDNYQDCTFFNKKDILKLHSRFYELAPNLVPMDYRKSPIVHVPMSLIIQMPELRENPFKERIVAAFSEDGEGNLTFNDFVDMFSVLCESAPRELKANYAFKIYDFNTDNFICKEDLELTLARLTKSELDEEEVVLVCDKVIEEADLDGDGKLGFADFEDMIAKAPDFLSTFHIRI
Put plainly: ITC + SEC.

The next experiment addresses T2, human CIB2 1-187 F21Q (human, UniProt O75838 1-187, F21Q).
T2 sequence: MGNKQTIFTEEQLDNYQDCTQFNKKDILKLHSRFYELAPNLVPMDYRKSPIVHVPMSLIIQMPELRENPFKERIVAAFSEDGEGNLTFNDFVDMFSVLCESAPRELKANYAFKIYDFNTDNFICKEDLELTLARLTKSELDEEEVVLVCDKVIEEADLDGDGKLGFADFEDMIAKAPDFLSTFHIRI
Put plainly: ITC + SEC.

For experiment [1], the target named is T3, human CIB2 1-187 D127A/D168A (EF-hand double mutant) (human, UniProt O75838 1-187, D127A | D168A).
T3 sequence: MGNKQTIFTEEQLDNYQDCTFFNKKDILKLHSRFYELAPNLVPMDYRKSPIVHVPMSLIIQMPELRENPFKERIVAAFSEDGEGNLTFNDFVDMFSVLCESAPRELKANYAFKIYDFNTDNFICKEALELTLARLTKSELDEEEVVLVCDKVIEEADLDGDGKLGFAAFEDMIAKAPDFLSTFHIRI
The experiment is described as follows: ITC.

In experiment [2] the target is T4, human CIB2 R66W (deafness-related variant) (human, UniProt O75838 1-187, R66W).
T4 sequence: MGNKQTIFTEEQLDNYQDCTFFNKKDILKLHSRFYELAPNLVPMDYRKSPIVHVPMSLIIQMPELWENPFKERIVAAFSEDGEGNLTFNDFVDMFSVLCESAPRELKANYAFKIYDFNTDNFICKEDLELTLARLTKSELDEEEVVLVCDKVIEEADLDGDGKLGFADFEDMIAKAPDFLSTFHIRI
Put plainly: ITC.

Experiment [3] has as its target T5, human CIB2 R186W (deafness-related variant) (human, UniProt O75838 1-187, R186W).
T5 sequence: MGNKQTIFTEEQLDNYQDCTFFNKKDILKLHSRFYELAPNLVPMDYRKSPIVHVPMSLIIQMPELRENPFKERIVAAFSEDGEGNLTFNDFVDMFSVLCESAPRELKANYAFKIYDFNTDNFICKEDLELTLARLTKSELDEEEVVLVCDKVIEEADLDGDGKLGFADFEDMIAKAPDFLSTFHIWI
The experiment is described as follows: ITC.

Experiment [4] concerns the target T6, human CIB2 Y115C (deafness-related variant) (human, UniProt O75838 1-187, Y115C).
T6 sequence: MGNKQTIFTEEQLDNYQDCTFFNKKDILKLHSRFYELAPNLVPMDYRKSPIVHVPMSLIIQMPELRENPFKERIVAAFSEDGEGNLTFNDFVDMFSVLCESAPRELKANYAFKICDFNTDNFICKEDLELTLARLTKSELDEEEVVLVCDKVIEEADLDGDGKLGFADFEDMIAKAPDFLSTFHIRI
The experiment is described as follows: ITC.

The target of experiment [5] is T7, human CIB2 E64D (deafness-related variant) (human, UniProt O75838 1-187, E64D).
T7 sequence: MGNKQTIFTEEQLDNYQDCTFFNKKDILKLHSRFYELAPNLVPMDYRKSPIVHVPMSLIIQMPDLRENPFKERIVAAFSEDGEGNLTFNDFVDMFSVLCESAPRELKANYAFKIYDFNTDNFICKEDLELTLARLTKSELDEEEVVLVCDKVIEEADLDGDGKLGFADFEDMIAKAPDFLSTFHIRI
The experiment is described as follows: ITC.

The next experiment concerns the target T8, mouse CIB3 (mouse, UniProt A0A5F8MPX9 1-187).
T8 sequence: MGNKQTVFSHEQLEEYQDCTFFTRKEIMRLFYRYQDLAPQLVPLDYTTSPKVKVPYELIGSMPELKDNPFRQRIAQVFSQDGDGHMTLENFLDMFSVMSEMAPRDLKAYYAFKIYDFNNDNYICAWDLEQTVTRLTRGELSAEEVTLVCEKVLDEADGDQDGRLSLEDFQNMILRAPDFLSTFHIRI
Put plainly: ITC.

The target in experiment [6] is T9, human CIB2 1-187 (calcium- and integrin-binding protein 2), wild type (human, UniProt O75838 1-187).
T9 sequence: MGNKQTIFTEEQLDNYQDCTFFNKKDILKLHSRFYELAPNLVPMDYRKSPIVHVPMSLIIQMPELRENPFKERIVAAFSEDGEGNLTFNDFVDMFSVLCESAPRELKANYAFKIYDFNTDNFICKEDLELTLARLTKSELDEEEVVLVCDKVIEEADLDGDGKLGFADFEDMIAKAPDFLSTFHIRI
The experiment is described as follows: ITC.

In experiment [7] the target is T10, human CIB2 1-187 Q17A/T20A (human, UniProt O75838 1-187, Q17A | T20A).
T10 sequence: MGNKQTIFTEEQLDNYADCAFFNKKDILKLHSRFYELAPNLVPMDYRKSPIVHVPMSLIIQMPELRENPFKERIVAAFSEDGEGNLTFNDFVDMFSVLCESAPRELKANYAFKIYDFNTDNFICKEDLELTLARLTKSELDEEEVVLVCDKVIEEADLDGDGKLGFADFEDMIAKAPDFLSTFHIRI
The experiment is described as follows: ITC.

The target of experiment [8] is T11, human CIB2 I123T (deafness-related variant) (human, UniProt O75838 1-187, I123T).
T11 sequence: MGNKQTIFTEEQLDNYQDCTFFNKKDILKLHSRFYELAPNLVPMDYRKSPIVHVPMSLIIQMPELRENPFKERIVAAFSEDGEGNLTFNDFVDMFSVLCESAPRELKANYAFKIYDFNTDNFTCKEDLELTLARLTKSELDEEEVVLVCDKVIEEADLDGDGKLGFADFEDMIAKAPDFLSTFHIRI
Put plainly: ITC.

Experiment [9] has as its target T9, human CIB2 1-187 (calcium- and …). Put plainly: SEC-MALS.
For experiment [10] the target is unchanged. The experiment is described as follows: ITC + SEC.
In experiment [11] the target is T4, human CIB2 R66W (deafness-related …). Put plainly: pull-down.
The target of experiment [12] is T5, human CIB2 R186W (deafness-related …). Put plainly: pull-down.
The target in experiment [13] is T6, human CIB2 Y115C (deafness-related …). The experiment is described as follows: pull-down.
The target in experiment [14] is T7, human CIB2 E64D (deafness-related …). Put plainly: pull-down.
In experiment [15] the target is T11, human CIB2 I123T (deafness-related …). Put plainly: pull-down.
Experiment [16] addresses T12, human CIB2 F91S (deafness-related variant) (human, UniProt O75838 1-187, F91S).
T12 sequence: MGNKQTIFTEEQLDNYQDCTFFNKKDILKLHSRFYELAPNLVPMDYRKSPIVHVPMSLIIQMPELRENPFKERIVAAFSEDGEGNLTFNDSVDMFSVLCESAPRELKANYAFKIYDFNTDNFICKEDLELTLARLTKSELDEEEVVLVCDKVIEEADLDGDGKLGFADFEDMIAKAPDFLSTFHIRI
Put plainly: pull-down.

For experiment [17], the target named is T12, human CIB2 F91S (deafness-related …). Put plainly: ITC.

B1: human TMC1 CBD-1 (CIB binding domain-1), residues 86-136 (domain or fragment)
chain: EEELERLKAELDEKRQIIATVKCKPWKMEKKIEVLKEAKKFVSENEGALGK
As for B1, the binding result (with human CIB2 1-187 E11R; with human CIB2 1-187 F21Q; in [1]; in [2]; in experiment [3]; in experiment [4]) was “binds” each time. The binding result (in experiment [5]; in the experiment with mouse CIB3; in [8]) was “binds” in each case. The Kd in experiment [6] was about 300 nM. For the same molecule, the “fold decrease in binding affinity against wild-type CIB2” value in experiment [7] is over 15 fold. Further, the “stoichiometry N” value in experiment [9] is 1.

B2: human TMC1 CBD-1 (86-136) K107A (domain or fragment)
chain: EEELERLKAELDEKRQIIATVACKPWKMEKKIEVLKEAKKFVSENEGALGK
For the molecule B2, the binding result in [10] was “binds”.

B3: GST-tagged human TMC1 CBD-1 (86-136) (domain or fragment)
chain: EEELERLKAELDEKRQIIATVKCKPWKMEKKIEVLKEAKKFVSENEGALGK
Consider B3, for which the binding result in [11], in [12], in experiment [13], in experiment [14] and in [15] was “binds” in each case.

B4: human TMC1 CBD-1 (86-136) K121E (domain or fragment)
chain: EEELERLKAELDEKRQIIATVKCKPWKMEKKIEVLEEAKKFVSENEGALGK
As for B4, in [10], the binding result is recorded as “binds”.

B5: GST-tagged human TMC1 CBD-2 (298-359) (domain or fragment)
chain: KNIGDDGGGDDNTFNFSWKVFTSWDYLIGNPETADNKFNSITMNFKEAITEEKAAQVEENVH
As for B5, the binding result in experiment [11], in [12] and in experiment [16] was “binds” throughout.

B6: human TMC2 CBD-1 (aa 150-200) (domain or fragment)
chain: EEELAQILEQVEEKKKLIATMRSKPWPMAKKLTELREAQEFVEKYEGALGK
As to B6, the Kd in experiment [6] was about 600 nM.

B7: human TMC2 CBD-2 (aa 363-424) (domain or fragment)
chain: NTQGSTGEGESDNFTFSFKMFTSWDYLIGNSETADNKYASITTSFKESIVDEQESNKEENIH
For the molecule B7, the binding result in [6] is listed as “binds”.
With ELDEKRQIIATVKCKPWKMEKKIEVLKEAKKFVSENEGALGK (domain or fragment) [human TMC1 fragment 95-136], the Kd in [6] is about 4600 nM.

B8: human TMC1 CBD-2, amino acids 298-359 (first cytoplasmic loop between TM domains 2 and 3) (domain or fragment)
chain: KNIGDDGGGDDNTFNFSWKVFTSWDYLIGNPETADNKFNSITMNFKEAITEEKAAQVEENVH
With B8, the binding result in experiment [2], in [3] and in experiment [17] was “binds” each time.
